Read-outs that look alike come from different tables or passages of the source.
Key:
Assay in all cases: cell-based or functional assay
[1] = biological target: T1, human IL-6Rα (human, UniProt P08887 20-358)
T1 sequence (looked up): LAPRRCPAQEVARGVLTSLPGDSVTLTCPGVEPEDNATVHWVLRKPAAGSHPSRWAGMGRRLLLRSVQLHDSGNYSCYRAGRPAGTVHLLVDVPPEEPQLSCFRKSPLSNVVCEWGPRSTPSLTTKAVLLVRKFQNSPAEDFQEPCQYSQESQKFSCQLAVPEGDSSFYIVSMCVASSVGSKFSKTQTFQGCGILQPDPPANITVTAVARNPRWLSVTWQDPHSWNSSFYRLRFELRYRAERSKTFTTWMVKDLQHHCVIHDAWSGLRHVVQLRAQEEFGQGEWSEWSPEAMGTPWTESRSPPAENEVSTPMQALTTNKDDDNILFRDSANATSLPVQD

[2] = biological target: T2, cell surface IL-6 receptor (TF-1 cells) (human, UniProt P08887 20-468)
T2 sequence (looked up): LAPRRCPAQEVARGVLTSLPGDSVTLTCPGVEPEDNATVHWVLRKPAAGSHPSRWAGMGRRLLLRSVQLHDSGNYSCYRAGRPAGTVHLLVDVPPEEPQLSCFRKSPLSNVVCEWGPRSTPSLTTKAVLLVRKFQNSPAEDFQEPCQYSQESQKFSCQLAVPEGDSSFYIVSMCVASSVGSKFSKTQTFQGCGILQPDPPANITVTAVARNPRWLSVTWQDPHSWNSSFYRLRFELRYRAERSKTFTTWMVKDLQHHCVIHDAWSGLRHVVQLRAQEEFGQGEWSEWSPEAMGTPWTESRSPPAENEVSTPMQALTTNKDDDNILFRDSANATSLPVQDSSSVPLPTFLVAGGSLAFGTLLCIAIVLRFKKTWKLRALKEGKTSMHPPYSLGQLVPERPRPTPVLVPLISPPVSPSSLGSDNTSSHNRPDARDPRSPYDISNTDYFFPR

[3] = biological target: T2, cell surface IL-6 receptor (TF-1 cells); remark: listed apart in the source

B1: tocilizumab (antibody, V domains shown)
VH: QVQLQESGPGLVRPSQTLSLTCTVSGYSITSDHAWSWVRQPPGRGLEWIGYISYSGITTYNPSLKSRVTMLRDTSKNQFSLRLSSVTAADTAVYYCARSLARTTAMDYWGQGSLVTVSS
VL: DIQMTQSPSSLSASVGDRVTITCRASQDISSYLNWYQQKPGKAPKLLIYYTSRLHSGVPSRFSGSGSGTDFTFTISSLQPEDIATYYCQQGNTLPYTFGQGTKVEIKR
IC50, IL-6 trans-signaling (MCP-1 secretion by HUVECs) [1]: ~5 nM
IC50, IL-6 dependent growth of TF-1 cells [2]: 0.3 nM
IC50, IL-6 dependent growth of TF-1 cells [3]: 0.41 nM

Source: US20170129926A1 (ABCLON, published 2017)
